Paper PMC11487272 (Nature Communications, 2024)
Each block holds one binder with its values, some of them ahead of it.

Experiments:
cryo-EM structure = target: the molecule itself; test: cryo-EM structure
[1] = target: full-length Casp-8 F122G/L123G/C360A/D374A/D384A (UniProt Q14790 1-479, F122G | L123G | C360A | D374A | D384A); test: co-purification
[2] = target: T1, His-tagged full-length FADD F25Y (UniProt Q13158 1-208, F25Y); test: pull-down
T1 sequence: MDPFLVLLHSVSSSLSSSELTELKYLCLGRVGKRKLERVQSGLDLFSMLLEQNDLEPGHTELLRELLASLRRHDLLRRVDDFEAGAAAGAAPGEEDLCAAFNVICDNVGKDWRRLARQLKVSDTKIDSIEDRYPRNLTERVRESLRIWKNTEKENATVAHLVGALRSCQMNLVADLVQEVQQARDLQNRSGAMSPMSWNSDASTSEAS

[3] = target: wild-type cFLIP^tDED (residues 1-181) (UniProt O15519 1-181); test: crystal structure

binding result [1]: binds
B1: His-tagged full-length FADD F25G (natural protein)
chain: MDPFLVLLHSVSSSLSSSELTELKGLCLGRVGKRKLERVQSGLDLFSMLLEQNDLEPGHTELLRELLASLRRHDLLRRVDDFEAGAAAGAAPGEEDLCAAFNVICDNVGKDWRRLARQLKVSDTKIDSIEDRYPRNLTERVRESLRIWKNTEKENATVAHLVGALRSCQMNLVADLVQEVQQARDLQNRSGAMSPMSWNSDASTSEAS
stoichiometry N (cryo-EM structure): 3 molecules in the complex

binding result [2]: binds
B2: binary CF^H7G-C8^FGLG complex, His-tag removed, SEC-purified (complex)
chain 1: […]
chain 2: MDFSRNLYDIGEQLDSEDLASLKFLSLDYIPQRKQEPIKDALMLFQRLQEKRMLEESNLSFLKELLFRINRLDLLITYLNTRKEEMERELQTPGRAQISAYRVMLYQISEEVSRSELRSFKGGLQEEISKCKLDDDMNLLDIFIEMEKRVILGEGKLDILKRVCAQINKSLLKIINDYEEFSKER

binding result [3]: binds
B3: Casp-8^tDED_FGLG (procaspase-8 tandem DED, residues 1-185, F122G/L123G) (domain or fragment)
chain: MDFSRNLYDIGEQLDSEDLASLKFLSLDYIPQRKQEPIKDALMLFQRLQEKRMLEESNLSFLKELLFRINRLDLLITYLNTRKEEMERELQTPGRAQISAYRVMLYQISEEVSRSELRSFKGGLQEEISKCKLDDDMNLLDIFIEMEKRVILGEGKLDILKRVCAQINKSLLKIINDYEEFSKER
